From US20260062455A1 (INSTITUT PASTEUR, published 2026)

What was measured:
[1] = molecular target: T1, GFP-MFSD2ACO (N-terminal FLAG-tag/GFP fusion of MFSD2ACO, detergent-solubilised lysate) (human, UniProt Q8NA29 1-543); experiment: titration of SYNC2-mCherry lysate onto GFP-MFSD2A captured on anti-FLAG resin in DDM/CHS at 4 °C; eluted mCherry/GFP fluorescence fitted to a quadratic binding equation
T1 construct: The methods say only 'MFSD2A'; also called MFSD2A-GFP; not shown: N-terminal FLAG-tag, GFP and PreScission protease cleavage site
T1 chain: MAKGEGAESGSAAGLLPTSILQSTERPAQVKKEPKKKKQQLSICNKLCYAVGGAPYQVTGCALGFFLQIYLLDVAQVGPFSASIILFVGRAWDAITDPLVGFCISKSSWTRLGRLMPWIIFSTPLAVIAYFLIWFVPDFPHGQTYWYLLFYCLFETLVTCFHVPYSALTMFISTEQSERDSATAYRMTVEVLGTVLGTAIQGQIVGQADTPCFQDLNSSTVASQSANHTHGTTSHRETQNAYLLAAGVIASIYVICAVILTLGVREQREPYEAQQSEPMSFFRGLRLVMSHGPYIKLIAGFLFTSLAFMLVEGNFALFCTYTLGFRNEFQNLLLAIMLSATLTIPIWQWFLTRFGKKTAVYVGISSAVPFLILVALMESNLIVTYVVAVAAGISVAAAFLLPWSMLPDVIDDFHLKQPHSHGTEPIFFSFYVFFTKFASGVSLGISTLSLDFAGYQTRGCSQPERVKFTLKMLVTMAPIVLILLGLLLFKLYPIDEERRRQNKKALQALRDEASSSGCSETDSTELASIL
Description: SYNC2 binding to MFSD2A was assayed in clear lysates of detergent-solubilized HEK-293F cells expressing mCherry (C-terminal) and GFP (N-terminal) fusion constructs of SYNC2 and MFSD2A, respectively, that enable protein quantification. Clear cells lysates were obtained by 1-hour solubilization in lysis buffer containing 50 mM HEPES pH 7.4, 200 mM NaCl, 5% v/v glycerol, 1 mM EDTA, protease-inhibitor cocktail, 1% DDM, and 0.2% CHS, followed by centrifugation (3,800g, 20 min). SYNC2-mCherry and GFP-MFSD2A protein concentrations in lysates were determined using purified standards in a micro-plate reader (CLARIOstar-Plus) set at 570/620 and 470/514 (λexcitation/λemission), respectively. MFSD2A-GFP lysate at 500 nM was incubated with 2 ml anti-FLAG M2 resin for 1 hour, fractionated in 8 equal parts placed on gravity columns and washed with 1 ml of wash buffer (50 mM HEPES pH 7.4, 200 mM NaCl, 5% (v/v) glycerol, 0.03% DDM, and 0.006% CHS). SYNC2-mCherry was added from a calibrated stock at 2 μM, and equilibrated for 1 hour. […] Eluted protein was transferred to a 96-well flat-bottom black plate for quantification of GFP and mCherry fluorescence. SYNC-mCherry fluorescence background was determined from samples with anti-FLAG resin that lack MFSD2A-GFP bound. SYNC2-mCherry subtracted fluorescence was fitted to a quadratic binding equation using Sigma Plot (Systat).

[2] = molecular target: T2, MFSD2ACO (thermostable consensus MFSD2A mutant), purified in detergent (human, UniProt Q8NA29 1-543); experiment: cryo-EM 2D classes and 3D reconstructions of the purified complex; 3.6 Å map of SYNC2SU-CO bound to MFSD2ACO
T2 construct: Full-length transporter expressed in HEK-293F with an N-terminal FLAG-tag, GFP and PreScission site; also called MFSD2A consensus; MFSD2A consensus design
T2 chain: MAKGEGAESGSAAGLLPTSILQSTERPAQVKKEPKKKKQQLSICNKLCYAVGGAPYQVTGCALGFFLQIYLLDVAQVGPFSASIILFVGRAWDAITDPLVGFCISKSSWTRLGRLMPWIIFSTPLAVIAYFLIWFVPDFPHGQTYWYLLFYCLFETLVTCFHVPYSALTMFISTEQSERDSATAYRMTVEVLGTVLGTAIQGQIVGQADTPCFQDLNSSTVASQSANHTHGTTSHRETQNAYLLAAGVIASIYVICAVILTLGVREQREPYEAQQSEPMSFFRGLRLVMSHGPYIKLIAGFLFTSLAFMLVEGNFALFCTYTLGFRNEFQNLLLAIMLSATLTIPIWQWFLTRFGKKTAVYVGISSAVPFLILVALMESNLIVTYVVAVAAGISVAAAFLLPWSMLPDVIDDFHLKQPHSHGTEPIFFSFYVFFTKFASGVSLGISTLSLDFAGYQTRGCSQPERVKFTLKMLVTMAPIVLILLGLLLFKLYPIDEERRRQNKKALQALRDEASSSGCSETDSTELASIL
Text: For cryo-EM structural determination of MFSD2ACO-SYNC2CO complex, the inventors used SYNC2CO-C43S (SYNC2_CO-C43S) mutant to avoid detachment of surface and transmembrane subunits upon binding to MFSD2ACO. […] However, high flexibility within the complex precluded high-resolution 3D reconstructions. To overcome this problem, the inventors used a smaller box size in order to extract individual components, effectively increasing particle number and sample homogeneity, as it was recently shown in cryo-EM structure determination of human CD20 bound to divalent Fab fragments (Kumar et al., 2020). This approach enabled particle averaging over the three MFSD2ACO molecules in the complex, yielding a cryo-EM map at an overall 3.6 Å resolution of SYNC2_SU-CO bound to MFSD2ACO (FIG. 1F; Table 1; FIG. 7, 8). […] Trimeric SYNC2TM in the post-fusion state was not resolved in 3D cryo-EM reconstructions, likely due to lower number of particles, as well as alignment problems of micelles containing only three flexible transmembrane helices.
MFSD2ACO-SYNC2_CO-C43S purified complex was applied to glow-discharged Au 200 mesh Quantifoil R1.2/1.3 holey carbon grids (Quantifoil), and vitrified using Vitrobot Mark IV (ThermoFisher). Typically, 4 μl of sample at 1.2-1.5 mg/ml were applied to the grids, and the Vitrobot chamber was maintained at 100% humidity and 4° C. […]

[3] = molecular target: T3, MFSD2ACO expressed in HEK-293T.17 cells (LPC-analog transport assay) (human, UniProt Q8NA29 1-543); experiment: cell-based or functional assay
T3 chain: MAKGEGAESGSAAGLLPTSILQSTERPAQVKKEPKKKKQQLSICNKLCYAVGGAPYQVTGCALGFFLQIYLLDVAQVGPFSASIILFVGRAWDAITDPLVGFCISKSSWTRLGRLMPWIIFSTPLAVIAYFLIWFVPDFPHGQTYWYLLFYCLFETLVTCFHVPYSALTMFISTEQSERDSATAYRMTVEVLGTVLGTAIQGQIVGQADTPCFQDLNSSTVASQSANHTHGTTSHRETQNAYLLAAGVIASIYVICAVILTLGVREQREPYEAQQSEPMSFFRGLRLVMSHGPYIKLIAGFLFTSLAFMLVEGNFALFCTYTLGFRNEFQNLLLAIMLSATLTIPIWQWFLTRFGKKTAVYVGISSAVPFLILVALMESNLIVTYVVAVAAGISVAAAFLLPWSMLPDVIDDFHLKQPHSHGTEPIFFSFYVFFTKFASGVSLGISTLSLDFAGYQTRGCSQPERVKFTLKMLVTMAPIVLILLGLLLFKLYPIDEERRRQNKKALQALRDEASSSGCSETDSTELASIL

B1: SYNC2CO-C43S-mCherry (C-terminal mCherry fusion, detergent-solubilised lysate) (ligand)
chain: AYRHPDFPLLEKAQQLLQSTGSPYSTNSWLCTSSSTETPGTAYPASPREWTSIEAELHISYRWDPNLKGLMRPANSLLSTVKQDFPDIRQKPPIFGPIFTNINLMGIAPICVTAKRKNGTNVGTLPSTVCNVTFTVDPNQQTYQTYTHNQFRHQPRFPKPPNITFPQGTLLDKSTRFCQGRPSSCSTRNFWFRPADYNQCLQISNLSSTAEWVLLDQTRNSLFWENKTKGANQSQTPCVQVLAGMTIATSYLGISAVSEFFGTSLTPLFHFHISTCLKTQGAFYICGQSIHQCLPSNWTGTCTIGYVTPDIFIAPGNLSLPIPIYGNSPLPRVRRAIHFIPLLAGLGILAGTGTGIAGITKASLTYSQLSKEIANNIDTMAKALTTMQEQIDSLAAVVLQNRRGLDMLTAAQGGICLALDEKCCFWVNQSGKVQDNIRQLLNQASSLRERATQGWLNWEGTWKWFSWVLPFIGPLVSLLLLLLFGPCLLNLITQFVSSRLQAIKLQTNLSAGRHPRNIQESPF
notes: The methods say only 'SYNC2'; also called SYNC2-mCherry; SYNC-mCherry; not shown: C-terminal mCherry
- Kd [1]: ~100 nM

B2: SYNC2CO-C43S (thermostable consensus SYNC2 mutant with additional mutation C43S), purified in detergent (ligand)
chain: AYRHPDFPLLEKAQQLLQSTGSPYSTNSWLCTSSSTETPGTAYPASPREWTSIEAELHISYRWDPNLKGLMRPANSLLSTVKQDFPDIRQKPPIFGPIFTNINLMGIAPICVTAKRKNGTNVGTLPSTVCNVTFTVDPNQQTYQTYTHNQFRHQPRFPKPPNITFPQGTLLDKSTRFCQGRPSSCSTRNFWFRPADYNQCLQISNLSSTAEWVLLDQTRNSLFWENKTKGANQSQTPCVQVLAGMTIATSYLGISAVSEFFGTSLTPLFHFHISTCLKTQGAFYICGQSIHQCLPSNWTGTCTIGYVTPDIFIAPGNLSLPIPIYGNSPLPRVRRAIHFIPLLAGLGILAGTGTGIAGITKASLTYSQLSKEIANNIDTMAKALTTMQEQIDSLAAVVLQNRRGLDMLTAAQGGICLALDEKCCFWVNQSGKVQDNIRQLLNQASSLRERATQGWLNWEGTWKWFSWVLPFIGPLVSLLLLLLFGPCLLNLITQFVSSRLQAIKLQTNLSAGRHPRNIQESPF
modifications: N-glycans at N133, N146, N177, N220, N241, N247 and N312 (all seven predicted sites carry glycans in the structure)
notes: Trimeric full-length envelope protein; also called SYNC2 consensus C43S; SYNC2SU-CO (its surface subunit as resolved in the cryo-EM map)
- binding result [2]: binds

B3: SYNC2SU-CO (soluble thermostable consensus SYNC2 fragment with C43S), purified, C-terminal EPEA-tag (ligand)
chain: AYRHPDFPLLEKAQQLLQSTGSPYSTNSWLCTSSSTETPGTAYPASPREWTSIEAELHISYRWDPNLKGLMRPANSLLSTVKQDFPDIRQKPPIFGPIFTNINLMGIAPICVTAKRKNGTNVGTLPSTVCNVTFTVDPNQQTYQTYTHNQFRHQPRFPKPPNITFPQGTLLDKSTRFCQGRPSSCSTRNFWFRPADYNQCLQISNLSSTAEWVLLDQTRNSLFWENKTKGANQSQTPCVQVLAGMTIATSYLGISAVSEFFGTSLTPLFHFHISTCLKTQGAFYICGQSIHQCLPSNWTGTCTIGYVTPDIFIAPEPEA
- half-maximal inhibitory concentration (IC50) of Na+-dependent LPCNBD transport in cells [3]: ~200 nM
